From patent publication US20250064890A1, “PROTEIN COMPOSITIONS FOR THE TREATMENT OF INFLAMMATORY DISEASES” (Unichem Laboratories Limited, priority 2021, published 2025)

How the values were obtained:
[1] = system: oral (buccal) mucosa cells (TR146); test: Restoration of mitochondrial membrane potential (JC-1) against 5-FU induced damage; format: cell-based, human; settings: for MMP: mitochondrial membrane potential, red/green JC-1 fluorescence ratio
Protocol: (§1) Oral buccal mucosal cells (TR146) were incubated overnight in 5% CO2 incubator at 37° C. for 24 h. […] After 24 h of treatment, cells were exposed to damage (5-FU 5 mM) for 1.25 h for chemotherapy induced inflammation and exposed to gamma radiation (3.5 kGy) using Cobalt 60 for radiation induced inflammation. After the exposure, the anti-apoptotic effect of SEQ ID NO 2 was determined by restoration of mitochondrial membrane depolarization by JC-1 staining and reduction in apoptotic cell populations (Annexin positive and subG0/G1 cells in cell cycle analysis).
(§2) After incubation, the supernatants were discarded and 100 μl of JC1-dye solution (prepared by diluting 1 mM DMSO stock into 10 μM in 1×PBS) was added to each well. The cells were then incubated with the dye in CO2 incubator at 37° C. for 15 min, after which the supernatant was removed, and the cells were washed twice with 1×PBS. 100 μl of 1×PBS was finally added to each well. Red fluorescence (excitation 550 nm, emission 600 nm) and green fluorescence (excitation 485 nm, emission 535 nm) were measured using Biotek Synergy HT plate reader. The mitochondrial membrane potential (Δψm) was calculated as the ratio of intensity of red fluorescence to intensity of green fluorescence.
(§3) The percentage increase/restoration in mitochondrial membrane potential (MMP) was calculated as: % Increase=[(R−X)/R]*100 • Where, X=Δψm corresponding to TI+5-FU treated cells or TI+radiation treated cells; R=Δψm corresponding to control cells (FU damaged or Radiation damaged alone)

[2] = system: oral (buccal) mucosa cells (TR146); test: Restoration of mitochondrial membrane potential (JC-1) against radiation induced damage; format: cell-based, human; settings: for MMP: red/green JC-1 fluorescence ratio
Protocol: as §1, §2, §3

[3] = system: oral (buccal) mucosa cells (TR146); test: Annexin positive cell population against 5-FU damage; format: cell-based, human
[4] = system: 5-Fluorouracil induced OM; test: Mucositis severity score, 5-FU induced OM in hamsters; format: in vivo, golden Syrian hamsters; settings: for Mucositis score: after 12 days, scale 0-5
Protocol: (§4) To induce OM, animals were administered (except normal control) 5-Fluorouracil (5-FU) by intraperitoneal route at doses of 60 mg/kg & 40 mg/kg respectively on first two days. On Day 4, under anesthesia, with aim of enhancing OM, mechanical irritation of the oral mucosa were done using wire brush. Treatment was initiated from Day 4 to Day 12. For group 3 animals 100 μl of vehicle comprising of standard drug Dexamethasone at 0.1 mg was instilled in buccal cheek pouch. For group 4, 5 and 6 animals 100 μl of vehicle comprising of SEQ ID NO. 2 at 0.25 mg, 0.5 mg & 1 mg, respectively was instilled in buccal cheek pouch. At the end of treatment period, cheek pouch of the hamsters was exposed, Mucositis scoring was carried out and images were captured. The animals were then humanely sacrificed, cheek pouch/jugular mucosa were isolated and used for biomarker estimation and histopathological investigation by using ELISA method and Hematoxylin and Eosin (H&E) staining, respectively.
Mucositis severity was scored as given below: • Cheek pouch completely healthy—0; Mild erythema—1; • Severe erythema and superficial erosion—2; Formation of ulcers in one or more places—3; Cumulative ulcer formation about 50% of cheek pouch surface area—4; Complete ulceration of the cheek pouch mucosa—5.

[5] = system: 5-Fluorouracil induced OM; test: Histopathology score of cheek pouch, 5-FU induced OM in hamsters; format: in vivo, golden Syrian hamsters; settings: for Histopathology score, Mean: scale 1-5
Protocol: as §4
For histopathology the oral mucosa tissues were sectioned 5 μm thickness and stained with hematoxylin-eosin staining. For study histopathological the sections were analyzed by light microscopy.
The pouch/jugular mucosa were observed and scored for infiltration of inflammatory cells, vasodilatation, presence of hemorrhagic areas, edema, ulcerations, and abscesses.

[6] = 100 μg/ml + Radiation (3.5 kGy)
[7] = hamsters suffering from OM, in words

B1: SEQ ID NO 2: recombinant lectin, variant of the S. rolfsii lectin amino acid sequence (reported as Rec-2 in WO 2010/095143) (protein)
chain: TYKITVRVYQTNPDAFFHPVEKTVWKYANGGTWTITDDQHVLTMGGSGTSGTLRFHADNGESFTATFGVHNYKRWCDIVTNLAADETGMVINQQYYSQKNREEARERQLSNYQVKNAKGRNFQIVYTEAEGNDLHANLIIG
**Q.** For B1, which “% Increase in MMP (with respect to control)” value (from here on “% Increase in MMP”) ([1]; 0.01 μg/ml + 5FU) is on record?
**A.** about 67%

**Q.** What about the MMP ([1]; 0.01 μg/ml + 5FU) of the same molecule?
**A.** 14.1

**Q.** And the “% Increase in MMP” value ([1]; 0.1 μg/ml + 5FU)?
**A.** 67.5%

**Q.** What about the MMP ([1]; 0.1 μg/ml + 5FU) of the same molecule?
**A.** 14.2

**Q.** And the “% Increase in MMP” value ([1]; 1 μg/ml + 5FU)?
**A.** 81.5%

**Q.** And the MMP ([1]; 1 μg/ml + 5FU)?
**A.** 15.4

**Q.** And the “% Increase in MMP” value ([1]; 10 μg/ml + 5FU)?
**A.** 79.6%

**Q.** What about the MMP ([1]; 10 μg/ml + 5FU) of the same molecule?
**A.** 15.2

**Q.** What about the “% Increase in MMP” value ([1]; 25 μg/ml + 5FU) of the same molecule?
**A.** 104.8%

**Q.** What about the MMP ([1]; 25 μg/ml + 5FU) of the same molecule?
**A.** 17.3

**Q.** What about the MMP ([1]; 50 μg/ml + 5FU) of the same molecule?
**A.** 17.8

**Q.** What about the “% Increase in MMP” value ([1]; 100 μg/ml + 5FU) of the same molecule?
**A.** 106.2%

**Q.** What about the MMP ([1]; 100 μg/ml + 5FU) of the same molecule?
**A.** 17.5

**Q.** And the MMP ([2]; 0.01 μg/ml + Radiation (3.5 kGy))?
**A.** 5.76

**Q.** What about the “% Increase in MMP” value ([2]; 1 μg/ml + Radiation (3.5 kGy)) of the same molecule?
**A.** 36.6%

**Q.** What about the “% Increase in MMP” value ([2]; 10 μg/ml + Radiation (3.5 kGy)) of the same molecule?
**A.** 17.8%

**Q.** And the MMP ([2]; 10 μg/ml + Radiation (3.5 kGy))?
**A.** 5.43

**Q.** What about the MMP ([2]; 50 μg/ml + Radiation (3.5 kGy)) of the same molecule?
**A.** 6.29

**Q.** And the “% Increase in MMP” value [2, 6]?
**A.** 7.9%

**Q.** What about the MMP [2, 6] of the same molecule?
**A.** 4.97

**Q.** What about the “% Apoptotic cells (Annexin +ve)” value ([3]; 0.01 μg/ml + 5FU (10 mM)) of the same molecule?
**A.** 3%

**Q.** And the “% Decrease in Apoptotic cells (with respect to 5-FU)” value (“% Decrease in Apoptotic cells” below) ([3]; 0.01 μg/ml + 5FU (10 mM))?
**A.** 81.7%

**Q.** And the “% Apoptotic cells (Annexin +ve)” value ([3]; 1 μg/ml + 5FU (10 mM))?
**A.** 3.1%

**Q.** And the “% Decrease in Apoptotic cells” value ([3]; 1 μg/ml + 5FU (10 mM))?
**A.** 81.1%

**Q.** And the “% Apoptotic cells (Annexin +ve)” value ([3]; 10 μg/ml + 5FU (10 mM))?
**A.** 8%

**Q.** And the “% Decrease in Apoptotic cells” value ([3]; 10 μg/ml + 5FU (10 mM))?
**A.** 51.5%

**Q.** What about the “% Apoptotic cells (Annexin +ve)” value ([3]; 50 μg/ml + 5FU (10 mM)) of the same molecule?
**A.** 19.3%

**Q.** And the “% Decrease in Apoptotic cells” value ([3]; 50 μg/ml + 5FU (10 mM))?
**A.** −17.4%

**Q.** What about the “% Apoptotic cells (Annexin +ve)” value ([3]; 100 μg/ml + 5FU (10 mM)) of the same molecule?
**A.** 26%

**Q.** And the “% Decrease in Apoptotic cells” value ([3]; 100 μg/ml + 5FU (10 mM))?
**A.** −58.5%

**Q.** What about the Mucositis score ([4]; G4, 0.25 mg/animal) of the same molecule?
**A.** 3.00±0.4

**Q.** And the Mucositis score ([4]; G5, 0.5 mg/animal)?
**A.** 2.8±0.3

**Q.** And the Mucositis score ([4]; G6, 1 mg/animal)?
**A.** 4.00±0.3

**Q.** And the “mucositis score as compared to the untreated subjects” value [4, 7]?
**A.** reduction

**Q.** What about the “Histopathology score, Mean” value ([5]; G4, 0.25 mg/Animal) of the same molecule?
**A.** 3

**Q.** What about the “Histopathology score, Mean” value ([5]; G5, 0.5 mg/Animal) of the same molecule?
**A.** 2

**Q.** And the “Histopathology score, Mean” value ([5]; G6, 1 mg/Animal)?
**A.** 2.8

**Q.** And the “histology score as compared to the untreated subjects” value [5, 7]?
**A.** reduction
